Measured values: patent US20240132578A1

Legend:
Experiment in all cases: cell-based or functional assay
[1] = target: HIV-1 Env of isolate MGRM-D-012 (pseudovirus) (HIV-1)
[2] = target: HIV-1 Env of isolate MGRM-AE-006 (subtype AE) (HIV-1)
[3] = target: HIV-1 Env of isolate MGRM-D-016 (pseudovirus) (HIV-1)
[4] = target: HIV-1 Env of isolate MGRM-AG-009 (subtype AG) (HIV-1)
[5] = target: HIV-1 Env of isolate VLGCA1 (subtype A) (HIV-1)
[6] = target: HIV-1 Env of isolate MGRM-Chronic-B-003 (HIV-1)
[7] = target: HIV-1 MGRM-A-010 Env (HIV-1)
[8] = target: HIV-1 JR-CSF Env N301A (HIV-1 (isolate JR-CSF, clade B)) (UniProt P20871)
[9] = target: HIV-1 Env of isolate 92TH021 (subtype AE) (HIV-1)
[10] = target: HIV-1 Env of isolate MGRM-A-013 (subtype A) (HIV-1)
[11] = target: HIV-1 Env of isolate MGRM-AG-006 (subtype AG) (HIV-1)
[12] = target: HIV-1 Env of isolate MGRM-AG-001 (subtype AG) (HIV-1)
[13] = target: aMLV envelope protein on pseudovirus (negative control)
[14] = target: HIV-1 envelope glycoprotein (Env) of isolate 92WR021, subtype A (HIV-1)
[15] = target: HIV-1 envelope glycoprotein (Env) of isolate MG RM-A-012, subtype A (HIV-1)
[16] = target: HIV-1 Env of isolate MGRM-AG-008 (pseudovirus) (HIV-1)
[17] = target: HIV-1 Env of isolate MGRM-AE-008 (pseudovirus) (HIV-1)
[18] = target: HIV-1 Env of isolate MGRM-D-013 (clade D pseudovirus) (HIV-1)
[19] = target: HIV-1 Env of isolate MGRM-Chronic-B-001, clade B (HIV-1)
[20] = target: HIV-1 Env of isolate 92UG001 (clade D pseudovirus) (HIV-1)
[21] = target: HIV-1 Env of isolate MGRM-A-001 (clade A pseudovirus) (HIV-1)
[22] = target: HIV-1 envelope glycoprotein (Env) of isolate MGRM-C-010 (HIV-1)
[23] = target: HIV-1 MGRM-AE-006 Env (pseudovirus) (HIV-1)
[24] = target: HIV-1 Env of isolate CAAN.A2 (Acute), clade B (HIV-1)
[25] = target: HIV-1 Env of isolate MGRM-D-028 (clade D pseudovirus) (HIV-1)
[26] = target: HIV-1 MGRM-AG-009 Env (pseudovirus) (HIV-1)
[27] = target: HIV-1 IAVI-C3 envelope (Env) on pseudovirus (HIV-1)
[28] = target: HIV-1 envelope glycoprotein (Env) of isolate MGRM-C-005 (HIV-1)
[29] = target: HIV-1 APV-17 envelope (Env) on pseudovirus (HIV-1)
[30] = target: HIV-1 Env of isolate QH0692.42 (Acute), clade B (HIV-1)
[31] = target: HIV-1 Env of isolate APV_17, clade B (HIV-1)
[32] = target: HIV-1 MGRM-AG-006 Env (pseudovirus) (HIV-1)

Sequence of 1443_C16 (PG16) (TCN-116) (antibody) (VH): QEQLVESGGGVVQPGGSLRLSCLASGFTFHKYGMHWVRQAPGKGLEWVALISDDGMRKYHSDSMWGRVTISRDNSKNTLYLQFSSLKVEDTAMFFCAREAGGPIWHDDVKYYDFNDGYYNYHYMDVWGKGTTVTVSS
Sequence of 1443_C16 (PG16) (TCN-116) (antibody) (VL): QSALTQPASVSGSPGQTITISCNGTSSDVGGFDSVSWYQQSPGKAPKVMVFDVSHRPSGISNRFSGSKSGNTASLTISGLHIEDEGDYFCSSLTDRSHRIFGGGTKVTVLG

| Substance | Fold IC50 increase relative to wild-type [8] [fold] | IC50, pseudovirus neutralization [18] [µg/mL] | IC50 (µg/ml), pseudovirus neutralization [19] [µg/mL] | IC50, pseudovirus neutralization [20] [µg/mL] | IC50 (µg/ml), pseudovirus neutralization [21] [µg/mL] | IC50 (µg/ml), pseudovirus neutralization [22] [µg/mL] | IC50 (µg/ml), pseudovirus neutralization [23] [µg/mL] | IC50 (µg/ml), pseudovirus neutralization [24] [µg/mL] | IC50, pseudovirus neutralization [25] [µg/mL] | IC50 (µg/ml), pseudovirus neutralization [26] [µg/mL] | neutralization IC50 [27] [µg/mL] | IC50 (µg/ml), pseudovirus neutralization [28] [µg/mL] | neutralization IC50 [29] [µg/mL] | IC50 (µg/ml), pseudovirus neutralization [30] [µg/mL] | IC50 (µg/ml), pseudovirus neutralization [31] [µg/mL] | IC50 (µg/ml), pseudovirus neutralization [32] [µg/mL] | also measured |
| --- | --- | --- | --- | --- | --- | --- | --- | --- | --- | --- | --- | --- | --- | --- | --- | --- | --- |
| 5147_N06 (PGT-130) (antibody) | > 1000 | – | – | – | – | – | – | – | – | – | – | – | – | – | – | – | IC50 (µg/mL), pseudovirus neutralization [1]: > 50 µg/mL; IC50, pseudovirus neutralization [2]: 0.009 µg/mL; IC50 (µg/mL), pseudovirus neutralization [3]: > 50 µg/mL; IC50, pseudovirus neutralization [4]: 9.46 µg/mL; IC50, pseudovirus neutralization [5]: > 50 µg/mL; IC50 (µg/mL), pseudovirus neutralization [6]: > 50 µg/mL; IC50, pseudovirus neutralization [7]: 0.0054 µg/mL; IC50, pseudovirus neutralization [9]: 0.009 µg/mL; IC50, pseudovirus neutralization [10]: > 50 µg/mL; IC50, pseudovirus neutralization [11]: 0.009 µg/mL; IC50, pseudovirus neutralization [12]: > 50 µg/mL; IC50 (ug/mL), pseudovirus neutralization [13]: > 10 µg/mL |
| 5123_A06 (PGT-125) (antibody) | 213 | – | – | – | – | – | – | – | – | – | – | – | – | – | – | – | IC50, pseudovirus neutralization [14]: 0.005 µg/mL; IC50, pseudovirus neutralization [15]: 0.177 µg/mL; IC50, pseudovirus neutralization [7]: 0.0025 µg/mL; IC50 (µg/mL), pseudovirus neutralization [16]: > 50 µg/mL; IC50 (µg/mL), pseudovirus neutralization [17]: > 50 µg/mL; IC50 (ug/mL), pseudovirus neutralization [13]: > 10 µg/mL |
| 2F5 (antibody) | – | 2.12 | 0.55 | 13 | > 50 | > 50 | 0.18 | 23.1 | > 50 | 24.8 | > 50 | > 50 | 2 | 5.42 | 4.61 | 0.85 | – |
| 2G12 (antibody) | – | > 50 | 0.08 | > 50 | > 50 | > 50 | > 50 | > 50 | > 50 | > 50 | > 50 | > 50 | > 50 | 4.39 | > 50 | 3.92 | – |
| 5141_B17 (PGT-126) (antibody) | 314 | – | – | – | – | – | – | – | – | – | – | – | – | – | – | – | IC50, pseudovirus neutralization [14]: 0.006 µg/mL; IC50, pseudovirus neutralization [15]: 0.097 µg/mL; IC50, pseudovirus neutralization [7]: 0.0033 µg/mL; IC50 (µg/mL), pseudovirus neutralization [16]: > 50 µg/mL; IC50 (µg/mL), pseudovirus neutralization [17]: > 50 µg/mL; IC50 (ug/mL), pseudovirus neutralization [13]: > 10 µg/mL |
| 1495_C14 (PGC14) (antibody) | – | > 50 | > 50 | > 50 | > 50 | > 50 | > 50 | > 50 | > 50 | > 50 | > 50 | > 50 | > 50 | > 50 | > 50 | > 50 | – |
| 1443_C16 (PG16) (TCN-116) (antibody) | – | 0.11 | > 50 | > 50 | > 50 | > 50 | 0.03 | 8.83 | > 50 | > 50 | 14.8 | 2.55 | > 50 | > 50 | 24.8 | > 50 | – |
| 5114_A19 (PGT-128) (antibody) | 10.7 | – | – | – | – | – | – | – | – | – | – | – | – | – | – | – | IC50 (µg/mL), pseudovirus neutralization [1]: > 50 µg/mL; IC50, pseudovirus neutralization [2]: 0.044 µg/mL; IC50 (µg/mL), pseudovirus neutralization [3]: > 50 µg/mL; IC50, pseudovirus neutralization [4]: 0.021 µg/mL; IC50, pseudovirus neutralization [5]: 0.838 µg/mL; IC50 (µg/mL), pseudovirus neutralization [6]: 0.007 µg/mL; IC50, pseudovirus neutralization [9]: 0.01 µg/mL; IC50, pseudovirus neutralization [10]: 0.008 µg/mL; IC50, pseudovirus neutralization [11]: 0.009 µg/mL; IC50, pseudovirus neutralization [12]: 4.73 µg/mL |
| 5136_H01 (PGT-131) (antibody) | > 170 | – | – | – | – | – | – | – | – | – | – | – | – | – | – | – | IC50 (µg/mL), pseudovirus neutralization [1]: > 50 µg/mL; IC50, pseudovirus neutralization [2]: 0.026 µg/mL; IC50 (µg/mL), pseudovirus neutralization [3]: > 50 µg/mL; IC50, pseudovirus neutralization [4]: > 50 µg/mL; IC50, pseudovirus neutralization [5]: > 50 µg/mL; IC50 (µg/mL), pseudovirus neutralization [6]: > 50 µg/mL; IC50, pseudovirus neutralization [9]: 0.014 µg/mL; IC50, pseudovirus neutralization [10]: > 50 µg/mL; IC50, pseudovirus neutralization [11]: 0.019 µg/mL; IC50, pseudovirus neutralization [12]: > 50 µg/mL |
| b12 (antibody) | – | > 50 | 0.75 | 1.01 | > 50 | > 50 | > 50 | > 50 | 0.78 | > 50 | 5 | 2.66 | > 25 | 0.73 | > 50 | > 50 | – |
| 4E10 (antibody) | – | 5.38 | 1.46 | 13.6 | 15.1 | 11 | 0.23 | 17.9 | 1.28 | 31.4 | 5 | 16.4 | 5.1 | 12.7 | 10.5 | 1.76 | – |
